Measured values: US12099068B2, “Biomarkers for graft-versus-host disease” (Incyte Corporation, priority 2018, dated 2024)

B1: CD5 (protein, UniProt P06127 25-495, looked up)
T-cell surface glycoprotein …: RLSWYDPDFQARLTRSNSKCQGQLEVYLKDGWHMVCSQSWGRSSKQWEDPSQASKVCQRLNCGVPLSLGPFLVTYTPQSSIICYGQLGSFSNCSHSRNDMCHSLGLTCLEPQKTTPPTTRPPPTTTPEPTAPPRLQLVAQSGGQHCAGVVEFYSGSLGGTISYEAQDKTQDLENFLCNNLQCGSFLKHLPETEAGRAQDPGEPREHQPLPIQWKIQNSSCTSLEHCFRKIKPQKSGRVLALLCSGFQPKVQSRLVGGSSICEGTVEVRQGAQWAALCDSSSARSSLRWEEVCREQQCGSVNSYRVLDAGDPTSRGLFCPHQKLSQCHELWERNSYCKKVFVTCQDPNPAGLAAGTVASIILALVLLVVLLVVCGPLAYKKLVKKFRQKKQRQWIGPTGMNQNMSFHRNHTATVRSHAENPTASHVDNEYSQPPRNSHLSAYPALEGALHRSSMQPDNSSDSDYDLHGAQRL
B2: SELL (protein, UniProt P14151 39-372, looked up)
L-selectin: WTYHYSEKPMNWQRARRFCRDNYTDLVAIQNKAEIEYLEKTLPFSRSYYWIGIRKIGGIWTWVGTNKSLTEEAENWGDGEPNNKKNKEDCVEIYIKRNKDAGKWNDDACHKLKAALCYTASCQPWSCSGHGECVEIINNYTCNCDVGYYGPQCQFVIQCEPLEAPELGTMDCTHPLGNFSFSSQCAFSCSEGTNLTGIEETTCGPFGNWSSPEPTCQVIQCEPLSAPDLGIMNCSHPLASFSFTSACTFICSEGTELIGKKKTICESSGIWSNPSPICQKLDKSFSMIKEGDYNPLFIPVAVMVTAFSGLAFIIWLARRLKKGKKSKRSMNDPY
B3: RELT (protein, UniProt Q969Z4 26-430, looked up)
Tumor necrosis factor …: STTLWQCPPGEEPDLDPGQGTLCRPCPPGTFSAAWGSSPCQPHARCSLWRRLEAQVGMATRDTLCGDCWPGWFGPWGVPRVPCQPCSWAPLGTHGCDEWGRRARRGVEVAAGASSGGETRQPGNGTRAGGPEETAAQYAVIAIVPVFCLMGLLGILVCNLLKRKGYHCTAHKEVGPGPGGGGSGINPAYRTEDANEDTIGVLVRLITEKKENAAALEELLKEYHSKQLVQTSHRPVSKLPPAPPNVPHICPHRHHLHTVQGLASLSGPCCSRCSQKKWPEVLLSPEAVAATTPVPSLLPNPTRVPKAGAKAGRQGEITILSVGRFRVARIPEQRTSSMVSEVKTITEAGPSWGDLPDSPQPGLPPEQQALLGSGGSRTKWLKPPAENKAEENRYVVRLSESNLVI
B4: SDC4 (protein, UniProt P31431 19-198, looked up)
Syndecan-4: ESIRETEVIDPQDLLEGRYFSGALPDDEDVVGPGQESDDFELSGSGDLDDLEDSMIGPEVVHPLVPLDNHIPERAGSGSQVPTEPKKLEENEVIPKRISPVEESEDVSNKVSMSSTVQGSNIFERTEVLAALIVGGIVGILFAVFLILLLMYRMKKKDEGSYDLGKKPIYKKAPTNEFYA
B5: AZU1 (protein, UniProt P20160 27-248, looked up)
Azurocidin: IVGGRKARPRQFPFLASIQNQGRHFCGGALIHARFVMTAASCFQSQNPGVSTVVLGAYDLRRRERQSRQTFSISSMSENGYDPQQNLNDLMLLQLDREANLTSSVTILPLPLQNATVEAGTRCQVAGWGSQRSGGRLSRFPRFVNVTVTPEDQCRPNNVCTGVLTRRGGICNGDGGTPLVCEGLAHGVASFSLGPCGRGPDFFTRVALFRDWIDGVLNNPGP
B6: CLEC5A (protein, UniProt Q9NY25 1-188, looked up)
C-type lectin domain family 5 …: MNWHMIISGLIVVVLKVVGMTLFLLYFPQIFNKSNDGFTTTRSYGTVSQIFGSSSPSPNGFITTRSYGTVCPKDWEFYQARCFFLSTSESSWNESRDFCKGKGSTLAIVNTPEKLKFLQDITDAEKYFIGLIYHREEKRWRWINNSVFNGNVTNQNQNFNCATIGLTKTFDAASCDISYRRICEKNAK
B7: PSP-D (protein, UniProt P35247 21-375, looked up)
Pulmonary …: AEMKTYSHRTMPSACTLVMCSSVESGLPGRDGRDGREGPRGEKGDPGLPGAAGQAGMPGQAGPVGPKGDNGSVGEPGPKGDTGPSGPPGPPGVPGPAGREGPLGKQGNIGPQGKPGPKGEAGPKGEVGAPGMQGSAGARGLAGPKGERGVPGERGVPGNTGAAGSAGAMGPQGSPGARGPPGLKGDKGIPGDKGAKGESGLPDVASLRQQVEALQGQVQHLQAAFSQYKKVELFPNGQSVGEKIFKTAGFVKPFTEAQLLCTQAGGQLASPRSAAENAALQQLVVAKNEAAFLSMTDSKTEGKFTYPTGESLVYSNWAPGEPNDDGGSEDCVEIFTNGKWNDRACGEKRLVVCEF
B8: SELE (protein, UniProt P16581 22-610, looked up)
E-selectin: WSYNTSTEAMTYDEASAYCQQRYTHLVAIQNKEEIEYLNSILSYSPSYYWIGIRKVNNVWVWVGTQKPLTEEAKNWAPGEPNNRQKDEDCVEIYIKREKDVGMWNDERCSKKKLALCYTAACTNTSCSGHGECVETINNYTCKCDPGFSGLKCEQIVNCTALESPEHGSLVCSHPLGNFSYNSSCSISCDRGYLPSSMETMQCMSSGEWSAPIPACNVVECDAVTNPANGFVECFQNPGSFPWNTTCTFDCEEGFELMGAQSLQCTSSGNWDNEKPTCKAVTCRAVRQPQNGSVRCSHSPAGEFTFKSSCNFTCEEGFMLQGPAQVECTTQGQWTQQIPVCEAFQCTALSNPERGYMNCLPSASGSFRYGSSCEFSCEQGFVLKGSKRLQCGPTGEWDNEKPTCEAVRCDAVHQPPKGLVRCAHSPIGEFTYKSSCAFSCEEGFELHGSTQLECTSQGQWTEEVPSCQVVKCSSLAVPGKINMSCSGEPVFGTVCKFACPEGWTLNGSAARTCGATGHWSGLLPTCEAPTESNIPLVAGLSAAGLSLLTLAPFLLWLRKCLRKAKKFVPASSCQSLESDGSYQKPSYIL
B9: BID (protein, UniProt P55957 1-195, looked up)
BH3-interacting domain death …: MDCEVNNGSSLRDECITNLLVFGFLQSCSDNSFRRELDALGHELPVLAPQWEGYDELQTDGNRSSHSRLGRIEADSESQEDIIRNIARHLAQVGDSMDRSIPPGLVNGLALQLRNTSRSEEDRNRDLATALEQLLQAYPRDMEKEKTMLVLALLLAKKVASHTPSLLRDVFHTTVNFINQNLRTYVRSLARNGMD
B10: ADAM 8 (protein, UniProt P78325 17-824, looked up)
Disintegrin and …: IAPSRPWALMEQYEVVLPWRLPGPRVRRALPSHLGLHPERVSYVLGATGHNFTLHLRKNRDLLGSGYTETYTAANGSEVTEQPRGQDHCFYQGHVEGYPDSAASLSTCAGLRGFFQVGSDLHLIEPLDEGGEGGRHAVYQAEHLLQTAGTCGVSDDSLGSLLGPRTAAVFRPRPGDSLPSRETRYVELYVVVDNAEFQMLGSEAAVRHRVLEVVNHVDKLYQKLNFRVVLVGLEIWNSQDRFHVSPDPSVTLENLLTWQARQRTRRHLHDNVQLITGVDFTGTTVGFARVSAMCSHSSGAVNQDHSKNPVGVACTMAHEMGHNLGMDHDENVQGCRCQERFEAGRCIMAGSIGSSFPRMFSDCSQAYLESFLERPQSVCLANAPDLSHLVGGPVCGNLFVERGEQCDCGPPEDCRNRCCNSTTCQLAEGAQCAHGTCCQECKVKPAGELCRPKKDMCDLEEFCDGRHPECPEDAFQENGTPCSGGYCYNGACPTLAQQCQAFWGPGGQAAEESCFSYDILPGCKASRYRADMCGVLQCKGGQQPLGRAICIVDVCHALTTEDGTAYEPVPEGTRCGPEKVCWKGRCQDLHVYRSSNCSAQCHNHGVCNHKQECHCHAGWAPPHCAKLLTEVHAASGSLPVFVVVVLVLLAVVLVTLAGIIVYRKARSRILSRNVAPKTTMGRSNPLFHQAASRVPAKGGAPAPSRGPQELVPTTHPGQPARHPASSVALKRPPPAPPVTVSSPPFPVPVYTRQAPKQVIKPTFAPPVPPVKPGAGAANPGPAEGAVGPKVALKPPIQRKQGAGAPTAP

system: plasma proteins; test: Plasma proteins modulated between baseline and day 28 in responders (CR, VGPR, PR; n = 19), Example 6 (Table 13); assay type: in vivo, human; conditions: plasma protein (OLINK NPX); responders (CR, VGPR, PR; n = 19); itacitinib 200 mg or 300 mg QD with corticosteroids; day 28 vs baseline
How it was run: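 Plasma at baseline/screening and day 28 profiled for >1000 proteins by OLINK proximity extension assay, reported as NPX (log2). Steroid-naive and steroid-refractory patients pooled. Paired and unpaired t tests, ANOVA and Pearson correlation applied; significance at P<0.05.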

Molecule | Fold Change, Decreased Expression from Baseline to Day 28
B1 | −1.9942
B2 | −1.4428
B3 | −1.3317
B4 | −1.4678
B5 | −2.0976
B6 | −1.3618
B7 | −1.2426
B8 | −1.5291
B9 | −1.382
B10 | −1.3896
